Values quoted from earlier work in publication PMC7550652.

Molecular target: Calmodulin (Homo sapiens) (UniProt P0DP23)

**Q.** For ERα (from UniProt P03372), which Kd is on record?
**A.** Its Kd is 0.16 nM.
